Reference: patent US20260176314

T1: FLAG_SERPINB14_HiBiT
T1 chain: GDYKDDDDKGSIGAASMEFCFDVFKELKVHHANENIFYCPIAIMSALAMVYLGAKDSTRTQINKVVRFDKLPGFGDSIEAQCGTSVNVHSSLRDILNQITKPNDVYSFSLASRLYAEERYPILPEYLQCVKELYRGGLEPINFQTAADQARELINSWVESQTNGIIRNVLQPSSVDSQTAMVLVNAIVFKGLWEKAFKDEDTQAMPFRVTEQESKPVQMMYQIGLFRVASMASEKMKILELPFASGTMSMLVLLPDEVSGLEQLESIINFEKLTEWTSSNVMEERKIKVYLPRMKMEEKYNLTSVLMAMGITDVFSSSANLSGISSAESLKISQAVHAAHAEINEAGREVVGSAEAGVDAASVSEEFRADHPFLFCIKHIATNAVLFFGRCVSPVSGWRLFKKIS

T2: bovine αS1 casein (variant C) (no signal peptide)
T2 chain: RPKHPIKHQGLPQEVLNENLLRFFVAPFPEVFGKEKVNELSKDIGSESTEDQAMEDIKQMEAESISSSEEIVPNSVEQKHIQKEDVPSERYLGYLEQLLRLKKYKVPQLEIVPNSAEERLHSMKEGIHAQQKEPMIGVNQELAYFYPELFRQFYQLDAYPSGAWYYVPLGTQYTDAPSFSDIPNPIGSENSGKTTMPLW

T3: bovine αS2 casein (no signal peptide)
T3 chain: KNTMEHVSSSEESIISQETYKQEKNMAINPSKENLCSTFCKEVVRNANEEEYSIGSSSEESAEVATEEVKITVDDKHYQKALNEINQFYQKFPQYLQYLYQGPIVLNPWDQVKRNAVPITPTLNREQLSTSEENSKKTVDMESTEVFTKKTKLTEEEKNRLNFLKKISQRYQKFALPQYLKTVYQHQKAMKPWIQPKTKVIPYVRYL

T4: bovine β casein (variant A2) (no signal peptide)
T4 chain: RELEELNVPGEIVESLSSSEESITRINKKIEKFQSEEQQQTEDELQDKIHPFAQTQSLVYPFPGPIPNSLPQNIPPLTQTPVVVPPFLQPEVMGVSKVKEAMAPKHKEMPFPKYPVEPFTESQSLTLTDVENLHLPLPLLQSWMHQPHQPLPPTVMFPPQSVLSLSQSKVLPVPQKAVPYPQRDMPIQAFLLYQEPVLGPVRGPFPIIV

B1: ScMNN2(M1-S36)_Fam20c(D93-R584)_FLAG (protein)
chain: MLLTKRFSKLFKLTFIVLILCGLFVITNKYMDENTSDFSSDPSSNLSSHSLEKLPPAAEPAERALRGRDPGALRPHDPAHRPLLRDPGPRRSESPPGPGGDASLLARLFEHPLYRVAVPPLTEEDVLFNVNSDTRLSPKAAENPDWPHAGAEGAEFLSPGEAAVDSYPNWLKFHIGINRYELYSRHNPAIEALLHDLSSQRITSVAMKSGGTQLKLIMTFQNYGQALFKPMKQTREQETPPDFFYFSDYERHNAEIAAFHLDRILDFRRVPPVAGRMVNMTKEIRDVTRDKKLWRTFFISPANNICFYGECSYYCSTEHALCGKPDQIEGSLAAFLPDLSLAKRKTWRNPWRRSYHKRKKAEWEVDPDYCEEVKQTPPYDSSHRILDVMDMTIFDFLMGNMDRHHYETFEKFGNETFIIHLDNGRGFGKYSHDELSILVPLQQCCRIRKSTYLRLQLLAKEEYKLSLLMAESLRGDQVAPVLYQPHLEALDRRLRVVLKAVRDCVERNGLHSVVDDDLDTEHRAASARDYKDDDDK
B2: Fam20c(M1-R584)_FLAG (protein)
chain: MKMMLVRRFRVLILMVFLVACALHIALDLLPRLERRGARPSGEPGCSCAQPAAEVAAPGWAQVRGRPGEPPAASSAAGDAGWPNKHTLRILQDFSSDPSSNLSSHSLEKLPPAAEPAERALRGRDPGALRPHDPAHRPLLRDPGPRRSESPPGPGGDASLLARLFEHPLYRVAVPPLTEEDVLFNVNSDTRLSPKAAENPDWPHAGAEGAEFLSPGEAAVDSYPNWLKFHIGINRYELYSRHNPAIEALLHDLSSQRITSVAMKSGGTQLKLIMTFQNYGQALFKPMKQTREQETPPDFFYFSDYERHNAEIAAFHLDRILDFRRVPPVAGRMVNMTKEIRDVTRDKKLWRTFFISPANNICFYGECSYYCSTEHALCGKPDQIEGSLAAFLPDLSLAKRKTWRNPWRRSYHKRKKAEWEVDPDYCEEVKQTPPYDSSHRILDVMDMTIFDFLMGNMDRHHYETFEKFGNETFIIHLDNGRGFGKYSHDELSILVPLQQCCRIRKSTYLRLQLLAKEEYKLSLLMAESLRGDQVAPVLYQPHLEALDRRLRVVLKAVRDCVERNGLHSVVDDDLDTEHRAASARDYKDDDDK

How the values were obtained:
FLAG_SERPINB14_HiBiT = target: T1, FLAG_SERPINB14_HiBiT
[1] = target: FLAG_TRX_SPP1 (G158-N314)_HiBiT
[2] = target: T2, bovine αS1 casein (variant C) (no …)
[3] = target: T3, bovine αS2 casein (no signal peptide)
[4] = target: T4, bovine β casein (variant A2) (no signal …)

Sequence of FLAG_TRX_SPP1 (G158-N314)_HiBiT (chain, as listed by the source): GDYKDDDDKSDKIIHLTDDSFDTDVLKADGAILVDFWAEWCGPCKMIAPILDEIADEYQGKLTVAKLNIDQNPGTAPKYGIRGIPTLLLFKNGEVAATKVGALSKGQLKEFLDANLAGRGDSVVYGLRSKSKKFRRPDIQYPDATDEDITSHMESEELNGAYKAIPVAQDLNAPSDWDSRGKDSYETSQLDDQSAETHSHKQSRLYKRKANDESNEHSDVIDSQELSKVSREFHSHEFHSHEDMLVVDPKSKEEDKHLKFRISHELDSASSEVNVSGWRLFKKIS

| Protein | phosphorylation sites detected by LC-MS/MS after co-expression in Pichia pastoris (FLAG_SERPINB14_HiBiT) | Phosphorylation [1] | phosphorylation sites detected by LC-MS/MS after co-expression in Kluyveromyces lactis [2] | phosphorylation sites detected by LC-MS/MS after co-expression in Kluyveromyces lactis [3] | phosphorylation sites detected by LC-MS/MS after co-expression in Kluyveromyces lactis [4] |
| --- | --- | --- | --- | --- | --- |
| B1 | T92, S99, S165, T202, S206, S222, S271, and S345 | Yes | S56, S61, S63, T64, S79, S81, S82, S83, S90, S103, and S130 | S23, S24, S25, S46, S52, S71, S72, S73, S76, T145, S146, S150, S158, and T159 | S30, S32, S33, S34, S37, T39, S50, at T56 |
| B2 |  |  | S61, S63, T64, S79, S81, S82, S83, S90, S103, and S130 | S24, S25, S46, T145, S146, S150, S158, T159, and T163 | S30, S32, S33, S34, T39, S50, and T56 |
